What was measured:
[1] = molecular target: MrsD-protein A fusion protein (shared helix method) (not stated | Staphylococcus aureus); assay: crystal structure; vapour diffusion; crystals of a single fusion protein
[2] = molecular target: YgjG-protein A fusion protein (shared helix method) (E. coli | Staphylococcus aureus); assay: crystal structure; vapour diffusion; complex of YgjG-protein A with ZpA963-PKA_C
[3] = molecular target: YgjG-protein A fusion protein (shared helix method) (E. coli | Staphylococcus aureus); assay: crystal structure; vapour diffusion; complex of YgjG-protein A with ZpA963-calmodulin; 5 mM CaCl2 in all buffers

Substance: MrsD-protein A fusion protein (shared helix method)
- stoichiometry N [1]: 12

Substance: YgjG-protein A fusion protein (shared helix method)
- stoichiometry N [2]: 4
- stoichiometry N [3]: 4

Reference: publication PMC5454011
